Measured values taken from EP3467119A1.

Target: recombinant caspase-3 (E. coli KRX lysate, pTS1k:caspase-3(T/S))
Assay: cell-based or functional assay

INDUCED luminescence, HisLink purification fraction E1: 2.95e+06
INDUCED luminescence, HisLink purification fraction E2: 4.09e+07
INDUCED luminescence, HisLink purification fraction E3: 3.29e+06
INDUCED luminescence, HisLink purification fraction E4: 216000
INDUCED luminescence, HisLink purification fraction E5: 48100
INDUCED luminescence, HisLink purification sample HSS: 1.29e+07
INDUCED luminescence, HisLink purification sample NSM: 5.82e+06
INDUCED luminescence, HisLink purification sample WASH: 3.71e+06
INDUCED luminescence, purified HQ:CBS:HT immobilised on HaloLink plate: 662000
RESPONSE, HisLink purification fraction E1: 699 fold
RESPONSE, HisLink purification fraction E2: 212 fold
RESPONSE, HisLink purification fraction E3: 178 fold
RESPONSE, HisLink purification fraction E4: 191 fold
RESPONSE, HisLink purification fraction E5: 178 fold
RESPONSE, HisLink purification sample HSS: 43 fold
RESPONSE, HisLink purification sample NSM: 33 fold
RESPONSE, HisLink purification sample WASH: 479 fold
RESPONSE, purified HQ:CBS:HT immobilised on HaloLink plate: 96 fold
Substance: HQ:CBS:HT (5x HQ tag:CBS:HaloTag)
